Measurements reported in patent US9383360B2, “Compositions and methods relating to lyme disease” (The United States of America, as represented by the …, priority 2012, dated 2016).

Columns and labels:
β-casein = target: T1, β-casein (Bos taurus, UniProt P02666); test: β-casein zymography; type: biochemical; settings: 1 μg recombinant protein, 12% β-casein zymogram gel, developed 40 h at 37° C., FIG. 12A
T1 construct: purchased Bio-Rad
T1 sequence (P02666 16-224): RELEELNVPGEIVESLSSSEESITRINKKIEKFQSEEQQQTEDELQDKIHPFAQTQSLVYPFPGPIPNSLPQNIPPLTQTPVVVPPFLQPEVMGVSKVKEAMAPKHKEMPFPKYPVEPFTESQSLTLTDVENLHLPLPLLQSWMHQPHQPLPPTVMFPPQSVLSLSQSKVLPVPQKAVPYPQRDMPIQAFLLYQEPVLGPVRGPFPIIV
Method: Proteolytic activity was studied by zymography of lysates of the prototype strains of each of the major genospecies of Borrelia that cause Lyme disease. Borrelia burgdorferi (passage 4, non-clonal, infectious strain B31), Borrelia garinii (unknown passage, infectious strain FR-20047) and Borrelia afzelii (unknown passage, infectious strain ACA-1) were grown in Barbour-Stoenner-Kelly media (BSK II) supplemented with 6% rabbit serum at 37° C. Borrelial lysates (˜1×10^8 B. garinii, B. afzelii; ˜5×10^7 B. burgdorferi) and recombinant BbHtrA proteins (1 μg) were subjected to SDS-PAGE electrophoresis using 12% β-casein Zymogram Ready Gels (Bio-Rad). Following electrophoresis, the gels were renatured in 2.5% Triton X-100 (Sigma) for 60 min at 37° C. with a buffer change at 15 min. The gels were developed in Zymogram Development Buffer (BioRad) for 40 h at 37° C. with a buffer change at 15 min. Gels were stained (0.5% Coomassie Brilliant Blue R-250, 40% methanol, 10% glacial acetic acid) for 60 min at room temperature and then destained (40% methanol, 10% glacial acetic acid).

Decorin = test: BbHtrA proteolysis assay, decorin substrate; type: biochemical, bovine, human; settings: SDS-PAGE, FIG. 5
Method: (§1) For proteolysis assays described in Examples herein, purified protein substrates (200-600 nM) and proteases (100-150 nM) were diluted in assay buffer (50 mM HEPES, pH 7.4, 5 mM CaCl2) and incubated overnight at 37° C. Samples were boiled for 4 minutes to inactivate the proteases. Proteoglycans were deglycosylated by overnight incubation at 37° C. with 0.01 U chondroitinase ABC (Seikagaku). Reactions were stopped by the addition of SDS/PAGE sample buffer, boiled for 4 minutes, and electrophoresed on pre-cast Tris-glycine gels (BioRad). Reaction products were visualized by silver staining.
(§2) Purified proteins were incubated with BbHtrA or BbHtrA^S226A as described herein. HtrA (also known as DegP) proteases belong to the family of serine proteases which contain a highly reactive serine residue in their active site. This serine (Ser210 in DegP) is part of the canonical His-Ser-Asp catalytic triad and mutation of the catalytic serine abolishes proteolytic activity (Skorko-Glonek et al., 1995). In BbHtrA, residues His119, Ser226 and Asp149 form the catalytic triad and mutation of serine 226 to alanine abolished proteolytic activity as expected (FIG. 5).
(§3) Reaction products were separated by SDS-PAGE and silver stained. Native collagen II and recombinant tenascin C were not degraded by BbHtrA indicating selectivity for proteoglycans, E-cadherin and fibronectin. […]

Tenascin C = Tenascin C (Homo sapiens, UniProt P24821); test: BbHtrA proteolysis assay, tenascin C substrate; type: biochemical; settings: SDS-PAGE, silver stain
Method: as §1, §2, §3

Versican = Versican (Homo sapiens, UniProt P13611); test: BbHtrA proteolysis assay, versican substrate; type: biochemical; settings: SDS-PAGE, FIG. 5
Method: as §1, §2, §3

Sequence of Versican (P13611 21-3396): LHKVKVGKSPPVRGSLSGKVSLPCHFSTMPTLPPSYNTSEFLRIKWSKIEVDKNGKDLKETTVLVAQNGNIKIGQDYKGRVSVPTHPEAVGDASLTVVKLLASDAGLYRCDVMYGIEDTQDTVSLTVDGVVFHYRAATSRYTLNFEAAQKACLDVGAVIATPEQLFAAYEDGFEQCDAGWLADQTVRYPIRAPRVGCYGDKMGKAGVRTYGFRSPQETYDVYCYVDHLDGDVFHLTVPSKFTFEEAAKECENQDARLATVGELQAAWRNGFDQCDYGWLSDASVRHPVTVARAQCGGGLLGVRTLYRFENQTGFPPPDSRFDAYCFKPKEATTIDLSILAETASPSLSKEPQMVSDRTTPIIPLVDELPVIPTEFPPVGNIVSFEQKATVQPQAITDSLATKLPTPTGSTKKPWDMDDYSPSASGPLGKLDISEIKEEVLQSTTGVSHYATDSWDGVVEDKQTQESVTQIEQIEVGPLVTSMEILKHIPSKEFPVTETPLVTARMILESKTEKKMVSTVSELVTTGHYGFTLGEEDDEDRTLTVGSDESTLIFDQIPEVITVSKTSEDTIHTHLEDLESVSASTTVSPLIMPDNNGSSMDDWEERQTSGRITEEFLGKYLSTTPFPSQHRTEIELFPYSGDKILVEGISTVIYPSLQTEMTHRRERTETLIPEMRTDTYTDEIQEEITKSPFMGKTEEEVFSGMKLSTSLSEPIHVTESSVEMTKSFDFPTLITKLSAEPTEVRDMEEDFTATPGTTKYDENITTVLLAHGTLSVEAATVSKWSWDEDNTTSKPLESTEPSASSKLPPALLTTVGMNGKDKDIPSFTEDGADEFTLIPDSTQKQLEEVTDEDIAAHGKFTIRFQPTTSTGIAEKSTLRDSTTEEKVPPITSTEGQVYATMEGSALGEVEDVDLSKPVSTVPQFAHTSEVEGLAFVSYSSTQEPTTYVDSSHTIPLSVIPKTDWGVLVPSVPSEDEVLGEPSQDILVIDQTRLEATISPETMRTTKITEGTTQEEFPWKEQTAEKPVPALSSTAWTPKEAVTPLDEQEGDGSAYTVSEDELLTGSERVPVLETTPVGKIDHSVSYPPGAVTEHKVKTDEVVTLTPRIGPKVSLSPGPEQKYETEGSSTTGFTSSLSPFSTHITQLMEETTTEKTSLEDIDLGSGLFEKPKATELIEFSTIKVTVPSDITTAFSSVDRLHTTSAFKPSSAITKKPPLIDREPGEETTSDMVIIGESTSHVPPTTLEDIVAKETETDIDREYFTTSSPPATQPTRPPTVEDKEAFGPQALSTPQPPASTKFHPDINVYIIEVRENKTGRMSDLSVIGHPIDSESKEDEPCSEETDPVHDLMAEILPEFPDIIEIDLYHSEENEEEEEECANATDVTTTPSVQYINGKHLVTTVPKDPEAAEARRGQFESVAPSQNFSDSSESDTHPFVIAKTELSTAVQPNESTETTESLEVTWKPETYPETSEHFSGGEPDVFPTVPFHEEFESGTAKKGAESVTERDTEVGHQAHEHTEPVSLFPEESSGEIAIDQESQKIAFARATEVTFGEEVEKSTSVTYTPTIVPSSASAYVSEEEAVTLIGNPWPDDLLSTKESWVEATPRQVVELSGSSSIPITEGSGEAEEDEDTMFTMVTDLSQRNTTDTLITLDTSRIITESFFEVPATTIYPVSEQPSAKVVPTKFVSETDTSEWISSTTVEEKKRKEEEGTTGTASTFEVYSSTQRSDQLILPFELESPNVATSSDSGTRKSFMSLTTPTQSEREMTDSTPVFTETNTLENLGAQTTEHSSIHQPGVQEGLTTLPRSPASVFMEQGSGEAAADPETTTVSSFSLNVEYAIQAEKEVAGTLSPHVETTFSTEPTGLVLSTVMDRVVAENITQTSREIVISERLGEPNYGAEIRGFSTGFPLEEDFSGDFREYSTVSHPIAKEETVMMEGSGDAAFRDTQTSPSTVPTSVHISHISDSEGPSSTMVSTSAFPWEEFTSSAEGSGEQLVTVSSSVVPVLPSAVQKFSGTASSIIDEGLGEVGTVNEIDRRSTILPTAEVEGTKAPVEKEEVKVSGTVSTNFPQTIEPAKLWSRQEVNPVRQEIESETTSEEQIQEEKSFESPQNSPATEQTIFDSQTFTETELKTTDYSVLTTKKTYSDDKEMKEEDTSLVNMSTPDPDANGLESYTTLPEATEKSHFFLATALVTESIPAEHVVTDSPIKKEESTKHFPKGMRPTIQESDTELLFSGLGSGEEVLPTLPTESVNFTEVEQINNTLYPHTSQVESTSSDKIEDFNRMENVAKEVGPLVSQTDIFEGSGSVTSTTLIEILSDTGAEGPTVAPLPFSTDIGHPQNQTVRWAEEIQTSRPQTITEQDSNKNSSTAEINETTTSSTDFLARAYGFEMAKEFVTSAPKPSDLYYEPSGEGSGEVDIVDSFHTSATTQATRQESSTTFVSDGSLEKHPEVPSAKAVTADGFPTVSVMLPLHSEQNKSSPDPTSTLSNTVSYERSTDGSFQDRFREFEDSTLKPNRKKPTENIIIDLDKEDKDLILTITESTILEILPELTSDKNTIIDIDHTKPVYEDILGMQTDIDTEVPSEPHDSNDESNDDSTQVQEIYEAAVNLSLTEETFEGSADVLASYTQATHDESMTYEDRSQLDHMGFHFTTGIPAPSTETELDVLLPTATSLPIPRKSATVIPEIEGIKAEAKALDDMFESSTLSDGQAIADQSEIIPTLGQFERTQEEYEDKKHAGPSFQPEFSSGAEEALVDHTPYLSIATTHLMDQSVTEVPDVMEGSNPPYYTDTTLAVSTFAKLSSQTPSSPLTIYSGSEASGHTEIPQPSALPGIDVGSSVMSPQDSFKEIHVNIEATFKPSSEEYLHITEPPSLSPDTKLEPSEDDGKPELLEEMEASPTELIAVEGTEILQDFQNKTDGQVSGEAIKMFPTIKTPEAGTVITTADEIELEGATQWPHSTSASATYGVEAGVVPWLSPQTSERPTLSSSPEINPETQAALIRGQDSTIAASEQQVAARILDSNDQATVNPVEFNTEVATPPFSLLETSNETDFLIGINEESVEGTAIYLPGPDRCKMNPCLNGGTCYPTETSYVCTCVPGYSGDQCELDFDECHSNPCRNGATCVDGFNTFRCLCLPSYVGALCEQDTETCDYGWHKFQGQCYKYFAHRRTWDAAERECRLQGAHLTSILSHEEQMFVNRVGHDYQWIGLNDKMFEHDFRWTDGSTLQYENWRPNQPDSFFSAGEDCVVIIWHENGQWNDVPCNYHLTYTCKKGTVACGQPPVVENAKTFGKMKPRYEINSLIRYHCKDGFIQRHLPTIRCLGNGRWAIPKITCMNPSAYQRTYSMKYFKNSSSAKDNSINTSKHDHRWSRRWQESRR

B1: BbHtrA: Recombinant wild type B. burgdorferi HtrA serine protease, mature protein amino acids 38-474, expressed in E. coli (SEQ ID NO:1, 9) (protein, listed as Borrelia burgdorferi)
chain: EEKDNTVRALQDSFREVSKKILPSSVEVHATGVIKQSFPIPFFFFDMPEFDSERKSNWAGSGVIIGRDSQKKSLFYVVTNSHVVDKATELEVVSYDKKKHKAKLIGKDEKKDIALISFESDDATIKVADLGDSDKLEIGDWVMAVGSPFQFSFTVTAGIVSGLQRSANPNLQSRNLFIQTDAAINRGNSGGPLVNIKGEVIGINAWIASNSGGNIGLGFAIPVNNIKSTVDFFLKGKKIESAWLGISFYPLKTRDSEVLKSLGVESNDVSAAIIASLYPGSPAVKSGLRAGDIIMKVNGVSMSVFQDVTSYISDFYAGEKVNVEILRGNVKKNIEIVLAVRPKDKELSSSKMLPGFVVYPLVEDIKAQLNLRNWIKGVVVDYIDKNLASNIKMKSGDVILSVNSKSVSNLREFYDALEVGKNTYKILRGNDSFKITF
For B1, the “Proteolytic activity against β-casein (clearing around the protein band)” value (β-casein) was “proteolytically active”, the Degradation of decorin (Decorin) was “degrades” and the “Degradation of recombinant tenascin C” value (Tenascin C) was “not degraded”. The Degradation of versican (Versican) was “degrades”.
